What was measured:
BMP-4 = assay: SPR (BIAcore); analyte over immobilized cytokine
TGF-β2 = assay: SPR (BIAcore); analyte over immobilized cytokine
[1] = target: purified human TGF-β1 (human) (UniProt P01137)
[2] = target: purified human TGF-β1 (human) (UniProt P01137); remark: listed apart in the source

Kd (BMP-4): 0.02 µM
koff (BMP-4): 0.0011 s⁻¹
kon (BMP-4): 54000 M⁻¹ s⁻¹
Kd (TGF-β2): 3.8 µM
koff (TGF-β2): 0.005 s⁻¹
kon (TGF-β2): 1300 M⁻¹ s⁻¹
percent neutralization of the antiproliferative activity of TGF-β1 (3H-thymidine incorporation, Mv1Lu cells) [1]: 150%
IC50, neutralization of TGF-β1 activity in the Mv1Lu growth inhibition assay [2]: 0.22 µM
Substance: bovine thyroglobulin (from UniProt P01267)
